{"source": "patent US20050013867A1", "about": "“Use of proton sequestering agents in drug formulations” (priority 2001, published 2005)", "key": {"[1]": {"experiment": "Degradation rate of parathyroid hormone in solution ± disodium citrate, by high pressure liquid chromatography", "assay_type": "physicochemical", "conditions": "1 mg/mL parathyroid hormone ± disodium citrate, pH 3, 40° C.", "protocol": "Determine the degradation rates of parathyroid hormone (1 mg/mL; 0.24 mM)±disodium citrate at pH 3 at 40° C. In separate aliquots, incubate with the following amounts of disodium citrate ([…]; 57.3 μg/mL, 0.24 mM; and 5.73 μg/mL, 0.024 mM). Include a control aliquot containing parathyroid hormone lacking disodium citrate. High pressure liquid chromatography is used to measure the degradation of parathyroid hormone at various time points."}, "[2]": {"conditions": "aqueous solution, general indicator of proton affinity, cited from earlier work"}}, "note": "Like-named read-outs stand apart in the source and are kept apart here.", "data": [{"substance": "parathyroid hormone", "values": [{"measurement": "retention of activity (degradation by HPLC)", "setting": "[1]", "result": "retains more activity in the citrate solution"}, {"measurement": "pKa of C-terminal carboxylate", "setting": "[2]", "result": "≈ 3.5"}, {"measurement": "pKa of carboxylate sidechains of aspartic and glutamic acid", "setting": "[2]", "result": "≈ 4.8"}, {"measurement": "pKa of C-terminal carboxylate", "setting": "[2]; listed as PTH", "result": 3.5}, {"measurement": "pKa of carboxylate sidechains of aspartic and glutamic acid", "setting": "[2]; listed as PTH", "result": 4.8}]}]}
